Data: patent US4534894A, “Process for sulphation and phosphorylation of proteins and peptides” (The Rockefeller University, priority 1982, dated 1985)

Legend:
[1] = Aggregation tendency by turbidity of the solution (absorbance at 400 nm); assay type: physicochemical; conditions: 0 to 0.1 A non-aggregated, above 0.3 aggregated
Protocol: The tendency of modified insulin to aggregate was assessed by measuring the turbidity of the solution. This method is based on the work of Leach and Scheraga (S. J. Leach and H. A. Scheraga (1964) J. Amer. Chem. Soc. 82, 4790-4792) who stated that absorbancy observed in insulin solutions between 350 and 600 nm is due to light scattering of aggregated particles. […] After deaeration under vacuo for 60 min. 1 ml of this solution was diluted with 1 ml of PBS, and the turbidity was measured on a Hewlett Packard spectrophotometer type HP 8590, utilizing as a blank a non-aggregated sample diluted by 1 volume of 8M guanidine hydrochloride. Aggregation was measured by the difference in absorbance determined at 400 nm for the two samples. Non-aggregated samples gave absorbance values of 0 to 0.1 Absorbance Unit(A), Values above 0.3 were considered to be aggregated.

[2] = Hypoglycemic potency (United States Pharmacopeia method); assay type: in vivo; conditions: USP Vol. 18 hypoglycemic potency assay; relative to unmodified insulin
Protocol: Hypoglycemic potency of the modified insulin was measured as described in "The United States Pharmacopeia", Mark Publishing Co., Vol. 18, pp. 883-884 (1964). Bioactivity was 62% as compared to unmodified insulin.

Substance	Turbidity (difference in absorbance at 400 nm) ([1]; dissolved in PBS, passed 50 times through syringe with 26G needle, blank in guanidine hydrochloride)	Bioactivity (hypoglycemic potency) as compared to unmodified insulin [2]	Turbidity (absorbance at 400 nm) ([1]; dissolved in distilled water, treated by the same procedure)
Example 1: porcine sodium insulin sulphated with sulfuric acid and N,N' dicyclohexyl carbodiimide in dimethylformamide	0.08 A	62%	
Example 4: porcine sodium insulin phosphorylated with concentrated phosphoric acid and DCC in DMF		85%	
unmodified porcine sodium insulin: unmodified porcine sodium insulin, starting material and comparator [reference compound]			0.51 A
